Assay results taken from US20150246136A1 (Bayer, published 2015).
Values joined by “and” are separate entries in the source; they are usually repeats but may differ in a detail not shown here. Equal entries are not always repeated.

Molecular target: Mesothelin (SwissProt reference Q13421-3) (Homo sapiens, UniProt Q13421 37-622)
Assay: cell-based or functional assay

| IC50 (nM), HT29 meso+ cells, MTT proliferation assay | Binder |
| --- | --- |
| 0.17 nM | Example 56, conjugate of anti-mesothelin antibody MF-Ta (antibody, human IgG1, lambda, V domains shown, toxophore-linker on Cys sulfur, sites not given) VH: QVELVQSGAEVKKPGESLKISCKGSGYSFTSYWIGWVRQAPGKGLEWMGIIDPGDSRTRYSPSFQGQVTISADKSISTAYLQWSSLKASDTAMYYCARGQLYGGTYMDGWGQGTLVTVSS VL: DIALTQPASVSGSPGQSITISCTGTSSDIGGYNSVSWYQQHPGKAPKLMIYGVNNRPSGVSNRFSGSKSGNTASLTISGLQAEDEADYYCSSYDIESATPVFGGGTKLTVLG |
| 1.5 nM | Example 66, conjugate of anti-mesothelin antibody MF-Ta (antibody, human IgG1, lambda, V domains shown, toxophore-linker on Cys sulfur, sites not given) VH: QVELVQSGAEVKKPGESLKISCKGSGYSFTSYWIGWVRQAPGKGLEWMGIIDPGDSRTRYSPSFQGQVTISADKSISTAYLQWSSLKASDTAMYYCARGQLYGGTYMDGWGQGTLVTVSS VL: DIALTQPASVSGSPGQSITISCTGTSSDIGGYNSVSWYQQHPGKAPKLMIYGVNNRPSGVSNRFSGSKSGNTASLTISGLQAEDEADYYCSSYDIESATPVFGGGTKLTVLG |
| 0.14 nM | Example 65, conjugate of anti-mesothelin antibody MF-Ta (antibody, human IgG1, lambda, V domains shown, toxophore-linker on Cys sulfur, sites not given) VH: QVELVQSGAEVKKPGESLKISCKGSGYSFTSYWIGWVRQAPGKGLEWMGIIDPGDSRTRYSPSFQGQVTISADKSISTAYLQWSSLKASDTAMYYCARGQLYGGTYMDGWGQGTLVTVSS VL: DIALTQPASVSGSPGQSITISCTGTSSDIGGYNSVSWYQQHPGKAPKLMIYGVNNRPSGVSNRFSGSKSGNTASLTISGLQAEDEADYYCSSYDIESATPVFGGGTKLTVLG |
| 2 nM | Example 68, conjugate of anti-mesothelin antibody MF-Ta (antibody, human IgG1, lambda, V domains shown, toxophore-linker on Cys sulfur, sites not given) VH: QVELVQSGAEVKKPGESLKISCKGSGYSFTSYWIGWVRQAPGKGLEWMGIIDPGDSRTRYSPSFQGQVTISADKSISTAYLQWSSLKASDTAMYYCARGQLYGGTYMDGWGQGTLVTVSS VL: DIALTQPASVSGSPGQSITISCTGTSSDIGGYNSVSWYQQHPGKAPKLMIYGVNNRPSGVSNRFSGSKSGNTASLTISGLQAEDEADYYCSSYDIESATPVFGGGTKLTVLG |
| 0.015 nM | Example 67, conjugate of anti-mesothelin antibody MF-Ta (antibody, human IgG1, lambda, V domains shown, toxophore-linker on Cys sulfur, sites not given) VH: QVELVQSGAEVKKPGESLKISCKGSGYSFTSYWIGWVRQAPGKGLEWMGIIDPGDSRTRYSPSFQGQVTISADKSISTAYLQWSSLKASDTAMYYCARGQLYGGTYMDGWGQGTLVTVSS VL: DIALTQPASVSGSPGQSITISCTGTSSDIGGYNSVSWYQQHPGKAPKLMIYGVNNRPSGVSNRFSGSKSGNTASLTISGLQAEDEADYYCSSYDIESATPVFGGGTKLTVLG |
| 5 nM | Example 58, conjugate of anti-mesothelin antibody MF-Ta (antibody, human IgG1, lambda, V domains shown, toxophore-linker on Lys NH, sites not given) VH: QVELVQSGAEVKKPGESLKISCKGSGYSFTSYWIGWVRQAPGKGLEWMGIIDPGDSRTRYSPSFQGQVTISADKSISTAYLQWSSLKASDTAMYYCARGQLYGGTYMDGWGQGTLVTVSS VL: DIALTQPASVSGSPGQSITISCTGTSSDIGGYNSVSWYQQHPGKAPKLMIYGVNNRPSGVSNRFSGSKSGNTASLTISGLQAEDEADYYCSSYDIESATPVFGGGTKLTVLG |
| 1 nM | Example 59, conjugate of anti-mesothelin antibody MF-Ta (antibody, human IgG1, lambda, V domains shown, toxophore-linker on Lys NH, sites not given) VH: QVELVQSGAEVKKPGESLKISCKGSGYSFTSYWIGWVRQAPGKGLEWMGIIDPGDSRTRYSPSFQGQVTISADKSISTAYLQWSSLKASDTAMYYCARGQLYGGTYMDGWGQGTLVTVSS VL: DIALTQPASVSGSPGQSITISCTGTSSDIGGYNSVSWYQQHPGKAPKLMIYGVNNRPSGVSNRFSGSKSGNTASLTISGLQAEDEADYYCSSYDIESATPVFGGGTKLTVLG |
| 0.019 nM | Example 61, conjugate of anti-mesothelin antibody MF-Ta (antibody, human IgG1, lambda, V domains shown, toxophore-linker on Cys sulfur, sites not given) VH: QVELVQSGAEVKKPGESLKISCKGSGYSFTSYWIGWVRQAPGKGLEWMGIIDPGDSRTRYSPSFQGQVTISADKSISTAYLQWSSLKASDTAMYYCARGQLYGGTYMDGWGQGTLVTVSS VL: DIALTQPASVSGSPGQSITISCTGTSSDIGGYNSVSWYQQHPGKAPKLMIYGVNNRPSGVSNRFSGSKSGNTASLTISGLQAEDEADYYCSSYDIESATPVFGGGTKLTVLG |
| 20 nM | Example 62, conjugate of anti-mesothelin antibody MF-Ta (antibody, human IgG1, lambda, V domains shown, toxophore-linker on Cys sulfur, sites not given) VH: QVELVQSGAEVKKPGESLKISCKGSGYSFTSYWIGWVRQAPGKGLEWMGIIDPGDSRTRYSPSFQGQVTISADKSISTAYLQWSSLKASDTAMYYCARGQLYGGTYMDGWGQGTLVTVSS VL: DIALTQPASVSGSPGQSITISCTGTSSDIGGYNSVSWYQQHPGKAPKLMIYGVNNRPSGVSNRFSGSKSGNTASLTISGLQAEDEADYYCSSYDIESATPVFGGGTKLTVLG |
| 0.02 nM | Example 70, conjugate of anti-mesothelin antibody MF-Ta (antibody, human IgG1, lambda, V domains shown, toxophore-linker on Cys sulfur, sites not given) VH: QVELVQSGAEVKKPGESLKISCKGSGYSFTSYWIGWVRQAPGKGLEWMGIIDPGDSRTRYSPSFQGQVTISADKSISTAYLQWSSLKASDTAMYYCARGQLYGGTYMDGWGQGTLVTVSS VL: DIALTQPASVSGSPGQSITISCTGTSSDIGGYNSVSWYQQHPGKAPKLMIYGVNNRPSGVSNRFSGSKSGNTASLTISGLQAEDEADYYCSSYDIESATPVFGGGTKLTVLG |
| 0.4 nM | Example 57, conjugate of anti-mesothelin antibody MF-Ta (antibody, human IgG1, lambda, V domains shown, toxophore-linker on Cys sulfur, sites not given) VH: QVELVQSGAEVKKPGESLKISCKGSGYSFTSYWIGWVRQAPGKGLEWMGIIDPGDSRTRYSPSFQGQVTISADKSISTAYLQWSSLKASDTAMYYCARGQLYGGTYMDGWGQGTLVTVSS VL: DIALTQPASVSGSPGQSITISCTGTSSDIGGYNSVSWYQQHPGKAPKLMIYGVNNRPSGVSNRFSGSKSGNTASLTISGLQAEDEADYYCSSYDIESATPVFGGGTKLTVLG |
| 0.03 nM | Example 63, conjugate of anti-mesothelin antibody MF-Ta (antibody, human IgG1, lambda, V domains shown, toxophore-linker on Cys sulfur, sites not given) VH: QVELVQSGAEVKKPGESLKISCKGSGYSFTSYWIGWVRQAPGKGLEWMGIIDPGDSRTRYSPSFQGQVTISADKSISTAYLQWSSLKASDTAMYYCARGQLYGGTYMDGWGQGTLVTVSS VL: DIALTQPASVSGSPGQSITISCTGTSSDIGGYNSVSWYQQHPGKAPKLMIYGVNNRPSGVSNRFSGSKSGNTASLTISGLQAEDEADYYCSSYDIESATPVFGGGTKLTVLG |
| 0.06 nM and 0.16 nM | Example 60, conjugate of anti-mesothelin antibody MF-Ta (antibody, human IgG1, lambda, V domains shown, toxophore-linker on Cys sulfur, sites not given) VH: QVELVQSGAEVKKPGESLKISCKGSGYSFTSYWIGWVRQAPGKGLEWMGIIDPGDSRTRYSPSFQGQVTISADKSISTAYLQWSSLKASDTAMYYCARGQLYGGTYMDGWGQGTLVTVSS VL: DIALTQPASVSGSPGQSITISCTGTSSDIGGYNSVSWYQQHPGKAPKLMIYGVNNRPSGVSNRFSGSKSGNTASLTISGLQAEDEADYYCSSYDIESATPVFGGGTKLTVLG |
| 0.11 nM | Example 64, conjugate of anti-mesothelin antibody MF-Ta (antibody, human IgG1, lambda, V domains shown, toxophore-linker on Cys sulfur, sites not given) VH: QVELVQSGAEVKKPGESLKISCKGSGYSFTSYWIGWVRQAPGKGLEWMGIIDPGDSRTRYSPSFQGQVTISADKSISTAYLQWSSLKASDTAMYYCARGQLYGGTYMDGWGQGTLVTVSS VL: DIALTQPASVSGSPGQSITISCTGTSSDIGGYNSVSWYQQHPGKAPKLMIYGVNNRPSGVSNRFSGSKSGNTASLTISGLQAEDEADYYCSSYDIESATPVFGGGTKLTVLG |
| 0.07 nM | Example 69, conjugate of anti-mesothelin antibody MF-Ta (antibody, human IgG1, lambda, V domains shown, toxophore-linker on Cys sulfur, sites not given) VH: QVELVQSGAEVKKPGESLKISCKGSGYSFTSYWIGWVRQAPGKGLEWMGIIDPGDSRTRYSPSFQGQVTISADKSISTAYLQWSSLKASDTAMYYCARGQLYGGTYMDGWGQGTLVTVSS VL: DIALTQPASVSGSPGQSITISCTGTSSDIGGYNSVSWYQQHPGKAPKLMIYGVNNRPSGVSNRFSGSKSGNTASLTISGLQAEDEADYYCSSYDIESATPVFGGGTKLTVLG |
